In article PMC4277623, “Synthesis and Preliminary Evaluation of a New ^99mTc Labeled Substance P Analogue as a Potential Tumor Imaging Agent” (Iranian Journal of Pharmaceutical Research : IJPR, 2015):
Where two headings read alike, the source gives them in different places.

Assays:
[1] = Stability in aqueous solution; format: physicochemical; conditions: reaction mixture at 25 °C up to 24 h; sampled 1, 4, 24 h; RP-HPLC
Description: The stability of radiolabeled peptide in aqueous solution was evaluated by incubation of the reaction mixture at room temperature (25 °C)up to 24 h.Stability in human serum at 37 °C was tested in parallel after adding 100 μL of reaction mixture to 1ml of fresh human serum. The incubation mixtures were sampled at 1, 4, and 24 h time points. Serum samples (100-200 μL) were treated with ethanol (200-400 μL) and centrifuged (4000 g, 5 min, 4 °C) to precipitate the serum proteins. 20-100 μL aliquots from the supernatant were separated to assess the degradation of ^99mTc labeled peptide by RP-HPLC (method I). 100 μL aliquots from the 25 °C incubated mixture were passed through a […] to eliminate possible ^99mTc colloids and then, 5-20 μL of filtrate were analyzed by RP-HPLC as well.

[2] = Log P, octanol/PBS partition; format: physicochemical; conditions: shake-flask octanol/PBS, vortexed 10 min, γ-counter, three aliquots per layer averaged
Description: In a 2 mL microtube, 0.5 mL of the^99mTc labeled peptides in PBS was mixed with 0.5 mL of octanol. The tube was vigorously vortexed over a period of 10 min and centrifuged at 4000g for 5 min. Three aliquots of 100 μL were sampled from eachlayer and counted in theγ counter. The averaged activities from the aqueous and the octanol layers were used to calculate the log p-values. The octanol-to-water partition coefficient (Po/w) of the radiolabeled peptides was calculated by dividing the counts of the octanol phase by that of the aqueous phase.

U373MG tumor = experiment: Biodistribution in tumor bearing nude mice; format: in vivo
Description: (§1) Male albino mice in a weight range of18-24 g were used for normal mice treatments and malenude mice (6 to 8 weeks old) were used for in-vivo tumor treatments. The mice were housed at controlled room temperature (25 °C) in a 12 h light/12 h dark schedule. They were kept in standard cages with free access to food and water except during the experiments. The nude mice were grown and kept in isolated sterile condition. All animal experiments were carried out in compliance with our institutional ethical guidelines.
(§2) U373MG cells were grown and harvested by trypsinization. Cells were washed twice with fresh RPMI medium containing 20% FBS and centrifuged for 5 min at 200 g. Pellets were resuspended in RPMI medium containing 20% FBS. A 100 µL suspension of 4 × 10^6 cells was subcutaneously injected on the right flank of each nude mouse. After four weeks, the size of inducted tumors was suitable for biodistribution study and mice were injected via the tail vein with radiolabeled peptide in two groups in the presence and absence of block. They sacrificed at 1 h and 4 h time points to assay the biodistribution. They were dissected and % ID/g of tissues was measured as described above. Finally, tumor-to-organ ratios were calculated.

[3] = Biodistribution in tumor bearing nude mice; format: in vivo; conditions: male, nude, mouse, iv, total radioactivity, mean ± SEM; for tissue uptake at 1 h: 1 h p.i.; for tissue uptake at 4 h: 4 h p.i.
Description: as §1, §2

[4] = Protein binding in human serum; format: in vitro ADME; conditions: fresh human serum, 2 h incubation; ethanol precipitation, centrifugation; γ-counter
Description: For protein binding estimation, freshly labeled peptide solution was filtered through a […] and a 100 μL aliquot of filtrate was incubated in 1ml fresh human serum for 2 h. After ethanol treatment and centrifugation (4000 g, 5 min, 4 °C), all the supernatant was completely removed. A slight wash with 1x phosphate-buffered saline (PBS) was done on the surface of the sediment and the eluate was added to the removed supernatant. The total activity of the supernatant and the activity of the sediment were measured by well-type NaI γ-counter to determine the percentage of radio peptide bound or transferred to albumin and other serum proteins.

[5] = U373MG tumor, U373MG tumor, blocked tumor bearing nude mice (excess SP), P< 0.01 vs nonblocked, read-out: %ID/g Tumor
[6] = blood, Blood, blocked tumor bearing nude mice (excess SP), read-out: %ID/g Blood
[7] = bone, Bone, blocked tumor bearing nude mice (excess SP), read-out: %ID/g Bone
[8] = bone, Bone, tumor bearing nude mice, i.v., n=3, read-out: %ID/g Bone
[9] = heart, Heart, blocked tumor bearing nude mice (excess SP), read-out: %ID/g Heart
[10] = heart, Heart, tumor bearing nude mice, i.v., n=3, read-out: %ID/g Heart
[11] = kidneys, Kidneys, blocked tumor bearing nude mice (excess SP), read-out: %ID/g Kidneys
[12] = kidneys, Kidneys, tumor bearing nude mice, i.v., n=3, read-out: %ID/g Kidneys
[13] = muscle, Muscle, blocked tumor bearing nude mice (excess SP), read-out: %ID/g Muscle
[14] = muscle, Muscle, tumor bearing nude mice, i.v., n=3, read-out: %ID/g Muscle
[15] = salivary gland, Salivary G., blocked tumor bearing nude mice (excess SP), read-out: %ID/g Salivary G.
[16] = salivary gland, Salivary G., tumor bearing nude mice, i.v., n=3, read-out: %ID/g Salivary G.
[17] = spleen, Spleen, blocked tumor bearing nude mice (excess SP), read-out: %ID/g Spleen
[18] = spleen, Spleen, tumor bearing nude mice, i.v., n=3, read-out: %ID/g Spleen
[19] = stomach, Stomach, blocked tumor bearing nude mice (excess SP), read-out: %ID/g Stomach
[20] = stomach, Stomach, tumor bearing nude mice, i.v., n=3, read-out: %ID/g Stomach

For `CC(C)C[C@H](NC(=O)CNC(=O)[C@H](Cc1ccc(O)cc1)NC(=O)[C@H](Cc1ccccc1)NC(=O)[C@H](CCC(N)=O)NC(=O)[C@H](CCC(N)=O)NC(=O)[C@@H]1CCCN1C(=O)[C@H](CCCCN)NC(=O)[C@@H]1CCCN1C(=O)[C@H](CCCNC(=N)N)NC(=O)c1ccc(NN)nc1)C(=O)N[C@@H](CC[S+](C)[O-])C(N)=O` (stereo partly shown) [^99mTc-HYNIC-Tyr^8-Met(O)^11-SP, metal not drawn], the “stability in aqueous solution” value [1] was “good stability”, the “log P” value [2] was -3.75 and the “D% Blood” value (U373MG tumor; Blood, decreased percent of %ID/g between 1 h and 4 h, nude mice) was 69%. The “%ID/g Blood” value (U373MG tumor; Blood, tumor bearing nude mice, 1 h p.i., i.v., mean ± SEM, n=3) was 1.32±0.16 %ID/g, the “D% Bone” value (U373MG tumor; Bone, decreased percent of %ID/g between 1 h and 4 h, nude mice) was 48% and the “D% Heart” value (U373MG tumor; Heart, decreased percent of %ID/g between 1 h and 4 h, nude mice) was 68%. The “D% Kidneys” value (U373MG tumor; Kidneys, decreased percent of %ID/g between 1 h and 4 h, nude mice) was 34%, the “%ID/g L. intestine” value (U373MG tumor; L. intestine, blocked tumor bearing nude mice (excess SP), 1 h p.i., mean ± SEM, P< 0.01 vs nonblocked) was 0.73±0.14 %ID/g and the “%ID/g L. intestine” value (U373MG tumor; L. intestine, blocked tumor bearing nude mice (excess SP), 4 h p.i., mean ± SEM, P< 0.01 vs nonblocked) was 0.70±0.16 %ID/g. For the same compound, the “D% L. intestine” value (U373MG tumor; L. intestine, decreased percent of %ID/g between 1 h and 4 h, nude mice) was 3%, the “%ID/g L. intestine” value (U373MG tumor; L. intestine, tumor bearing nude mice, 1 h p.i., i.v., mean ± SEM, n=3) was 1.89±0.15 %ID/g and the “%ID/g L. intestine” value (U373MG tumor; L. intestine, tumor bearing nude mice, 4 h p.i., i.v., mean ± SEM, n=3) was 1.83±0.06 %ID/g. For the same compound, the “%ID/g Liver” value (U373MG tumor; Liver, blocked tumor bearing nude mice (excess SP), 1 h p.i., mean ± SEM) was 0.96±0.10 %ID/g, the “%ID/g Liver” value (U373MG tumor; Liver, blocked tumor bearing nude mice (excess SP), 4 h p.i., mean ± SEM) was 0.50±0.08 %ID/g and the “D% Liver” value (U373MG tumor; Liver, decreased percent of %ID/g between 1 h and 4 h, nude mice) was 37%. The “%ID/g Liver” value (U373MG tumor; Liver, tumor bearing nude mice, 1 h p.i., i.v., mean ± SEM, n=3) was 0.86±0.09 %ID/g, the “%ID/g Liver” value (U373MG tumor; Liver, tumor bearing nude mice, 4 h p.i., i.v., mean ± SEM, n=3) was 0.54±0.07 %ID/g and the “%ID/g Lung” value (U373MG tumor; Lung, blocked tumor bearing nude mice (excess SP), 1 h p.i., mean ± SEM) was 1.53±0.25 %ID/g. The “%ID/g Lung” value (U373MG tumor; Lung, blocked tumor bearing nude mice (excess SP), 4 h p.i., mean ± SEM) was 0.67±0.09 %ID/g, the “D% Lung” value (U373MG tumor; Lung, decreased percent of %ID/g between 1 h and 4 h, nude mice) was 48% and the “%ID/g Lung” value (U373MG tumor; Lung, tumor bearing nude mice, 1 h p.i., i.v., mean ± SEM, n=3) was 1.47±0.15 %ID/g. For the same compound, the “%ID/g Lung” value (U373MG tumor; Lung, tumor bearing nude mice, 4 h p.i., i.v., mean ± SEM, n=3) was 0.76±0.12 %ID/g, the “D% Muscle” value (U373MG tumor; Muscle, decreased percent of %ID/g between 1 h and 4 h, nude mice) was 84% and the “%ID/g S. intestine” value (U373MG tumor; S. intestine, blocked tumor bearing nude mice (excess SP), 1 h p.i., mean ± SEM, P< 0.01 vs nonblocked) was 0.83±0.12 %ID/g. The “%ID/g S. intestine” value (U373MG tumor; S. intestine, blocked tumor bearing nude mice (excess SP), 4 h p.i., mean ± SEM, P< 0.05 vs nonblocked) was 0.36±0.09 %ID/g, the “D% S. intestine” value (U373MG tumor; S. intestine, decreased percent of %ID/g between 1 h and 4 h, nude mice) was 70% and the “%ID/g S. intestine” value (U373MG tumor; S. intestine, tumor bearing nude mice, 1 h p.i., i.v., mean ± SEM, n=3) was 2.57±0.34 %ID/g. For the same compound, the “%ID/g S. intestine” value (U373MG tumor; S. intestine, tumor bearing nude mice, 4 h p.i., i.v., mean ± SEM, n=3) was 0.78±0.07 %ID/g, the “D% Salivary G.” value (U373MG tumor; Salivary G., decreased percent of %ID/g between 1 h and 4 h, nude mice) was 66% and the “D% Stomach” value (U373MG tumor; Stomach, decreased percent of %ID/g between 1 h and 4 h, nude mice) was 61%. The “D% Tumor” value (U373MG tumor; U373MG tumor, decreased percent of %ID/g between 1 h and 4 h, nude mice) was 62%, the “%ID/g Tumor” value (U373MG tumor; U373MG tumor, tumor bearing nude mice, 1 h p.i., i.v., mean ± SEM, n=3) was 3.36±0.26 %ID/g and the tissue uptake at 1 h [3, 5] was 1.36 ± 0.19 %ID/g. For the same compound, the tissue uptake at 4 h [3, 5] was 0.54 ± 0.08 %ID/g, the tissue uptake at 4 h ([3]; U373MG tumor, U373MG tumor, tumor bearing nude mice, i.v., n=3, read-out: %ID/g Tumor) was 1.26 ± 0.11 %ID/g and the tissue uptake at 1 h [3, 6] was 1.7 ± 0.14 %ID/g. It also gave a tissue uptake at 4 h [3, 6] of 0.52 ± 0.15 %ID/g, a tissue uptake at 4 h ([3]; blood, Blood, tumor bearing nude mice, i.v., n=3, read-out: %ID/g Blood) of 0.41 ± 0.12 %ID/g and a tissue uptake at 1 h [3, 7] of 0.66 ± 0.07 %ID/g. It also gave a tissue uptake at 4 h [3, 7] of 0.31 ± 0.03 %ID/g, a tissue uptake at 1 h [3, 8] of 0.52 ± 0.06 %ID/g and a tissue uptake at 4 h [3, 8] of 0.27 ± 0.03 %ID/g. It also gave a tissue uptake at 1 h [3, 9] of 0.98 ± 0.09 %ID/g, a tissue uptake at 4 h [3, 9] of 0.23 ± 0.02 %ID/g and a tissue uptake at 1 h [3, 10] of 0.78 ± 0.11 %ID/g. The tissue uptake at 4 h [3, 10] was 0.25 ± 0.02 %ID/g, the tissue uptake at 1 h [3, 11] was 20.2 ± 0.61 %ID/g and the tissue uptake at 4 h [3, 11] was 13.1 ± 0.76 %ID/g. The tissue uptake at 1 h [3, 12] was 19.3 ± 0.65 %ID/g, the tissue uptake at 4 h [3, 12] was 12.8 ± 0.52 %ID/g and the tissue uptake at 1 h [3, 13] was 0.73 ± 0.09 %ID/g. It also gave a tissue uptake at 4 h [3, 13] of 0.09 ± 0.01 %ID/g, a tissue uptake at 1 h [3, 14] of 0.51 ± 0.06 %ID/g and a tissue uptake at 4 h [3, 14] of 0.08 ± 0.01 %ID/g. The tissue uptake at 1 h [3, 15] was 0.95 ± 0.06 %ID/g, the tissue uptake at 4 h [3, 15] was 0.41 ± 0.03 %ID/g and the tissue uptake at 1 h [3, 16] was 1 ± 0.09 %ID/g. It also gave a tissue uptake at 4 h [3, 16] of 0.33 ± 0.04 %ID/g, a tissue uptake at 1 h [3, 17] of 0.34 ± 0.04 %ID/g and a tissue uptake at 4 h [3, 17] of 0.26 ± 0.03 %ID/g. It also gave a tissue uptake at 1 h [3, 18] of 0.46 ± 0.07 %ID/g, a tissue uptake at 4 h [3, 18] of 0.32 ± 0.03 %ID/g and a tissue uptake at 1 h [3, 19] of 0.63 ± 0.13 %ID/g. It also gave a tissue uptake at 4 h [3, 19] of 0.26 ± 0.05 %ID/g, a tissue uptake at 1 h [3, 20] of 0.81 ± 0.12 %ID/g and a tissue uptake at 4 h [3, 20] of 0.32 ± 0.03 %ID/g. It also gave a fraction unbound at 2 h [4] of 0.56.
